The Immune Epitope Database (IEDB)

Assays:
Details in all cases: source organism: Cryptosporidium parvum Iowa II
[1] = target: HLA-A*02:19; test: IEDB peptide-MHC binding, purified MHC/direct/fluorescence; filed as Kd, often an IC50 or EC50 that approximates it; ≥ and ≤ were set here for values at or beyond the usual limits of such assays
[2] = target: HLA-A*26:01; test: as above
[3] = target: HLA-B*15:01; test: as above
[4] = target: HLA-B*27:03; test: as above
[5] = target: HLA-A*68:02; test: as above
[6] = target: HLA-A*24:03; test: as above
[7] = target: HLA-B*39:01; test: as above
[8] = target: HLA-A*02:01; test: as above
[9] = target: HLA-B*18:01; test: as above
[10] = target: HLA-A*03:01; test: as above
[11] = target: HLA-B*15:17; test: as above
[12] = target: HLA-A*66:01; test: IEDB peptide-MHC binding, purified MHC/competitive/fluorescence; filed as Kd, often an IC50 or EC50 that approximates it; ≥ and ≤ were set here for values at or beyond the usual limits of such assays
[13] = target: HLA-B*40:01; test: as above
[14] = target: HLA-B*27:05; test: as above
[15] = target: HLA-B*08:01; test: as above
[16] = target: HLA-B*44:02; test: as above
[17] = target: HLA-B*53:01; test: as above
[18] = target: HLA-B*51:01; test: as above
[19] = target: HLA-B*14:02; test: as above
[20] = target: HLA-B*07:02; test: as above
[21] = target: HLA-A*01:01; test: as above
[22] = target: HLA-B*58:01; test: as above
[23] = target: HLA-A*30:02; test: as above
[24] = target: HLA-A*30:01; test: as above
[25] = target: HLA-A*11:01; test: as above

TVFRNQNRV
Kd [1]: ≥ 20 µM | Kd [2]: ≥ 20 µM | Kd [3]: ≥ 20 µM | Kd [4]: ≥ 20 µM | Kd [5]: ≤ 0.001 µM | Kd [6]: ≥ 20 µM | Kd [7]: ≥ 20 µM | Kd [8]: ≥ 20 µM | Kd [9]: ≥ 20 µM | Kd [10]: ≥ 20 µM | Kd [11]: ≥ 20 µM | Kd [12]: ≥ 5 µM | Kd [13]: ≥ 5 µM | Kd [14]: ≥ 5 µM | Kd [15]: ≥ 5 µM | Kd [16]: ≥ 5 µM | Kd [17]: ≥ 5 µM | Kd [18]: ≥ 5 µM | Kd [19]: ≥ 5 µM | Kd [20]: ≥ 5 µM | Kd [21]: ≥ 5 µM | Kd [22]: ≥ 5 µM | Kd [23]: ≥ 5 µM | Kd [24]: ≥ 5 µM | Kd [25]: ≥ 5 µM
